Test: soluble on expression in E. coli; label from the status in PepcDB or PDB records

Sequence	soluble on expression in E. coli
MPLSSPDRLAIAVDLGTTTLAASLLDMATGERLAVAGSLNPQREFGADVIARLDAACRSKEARHRMAELVRGAIGRLAGELLESVGRSPEHLVTIAVAGNPAMEHLLLDLPVDALAFPPYRPLFTAGKTVPAVGLGWDLPAEVFLFPLPGGFVGGDTVAFLHGVPGPRSPVPGPRLYLDMGTNGEIALAADGKLLATSAAAGPAFEGGNLSCGMAALPGAISGVTFDGERLLVSTVEGKPATGICGSGVLSAIALLLDQGAIDSTGRLLPPEEIPSSIGNRLTTMGDERAFVLHRDATRTVWLSQEDIRQVQLAKGAIRAGMEVLFDRAGIESGAVGSVVLTGSFGAVLDPHSLKSLGVFTENMVQTTSFVREGALRGVEHALLTSGGLAAVDHLAGTIRVIPLSGTPAFEKHFLQHINFPHTILEHHHHHH	soluble
MTPSVAQNTKYVNLFIGTSGDNGQVAPGAAAPFGMVCVCPDNDPRSHAGYDYAVTKVSGISVNRLSGVGCSGGGGNLRIRPVAPSQELHIKKSREKATPGYYSTAFTNGIKTELTATNAMAVERYKFPRSLSAALWIDFASTFEDVATCHYKRISETCIEGYVQAKNVCGHGCYKLYFSLNTSQPLEHHHHHH	not soluble
EMGTADLGPSSVPTPTNVTIESYNMNPIVYWEYQIMPQVPVFTVEVKNYGVKNSEWIDACINISHHYCNISDHVGDPSNSLWVRVKARVGQKESAYAKSEEFAVCRDGKIGPPKLDIRKEEKQIMIDIFHPSVFVNGDEQEVDYDPETTCYIRVYNVYVRMNGSEIQYKILTQKEDDCDEIQCQLAIPVSSLNSQYCVSAEGVLHVWGVTTEKSKEVCITIFNSSIKGSLWIPVVAALLLFLVLS	soluble
MNNEFLQTEEDIVRMLRTVYDPEIPVNVYDLGLIYNVDVGADGFVTVTMTLTAPNCPAADFIIEDVRMKVESVKGVKGVKIDLTFEPEWNKDMMSEEAMLELGFL	not soluble
MGSDKIHHHHHHMPDSPTTTSTLDLELLRTFVAVVDQHSFAQAGAHLARTQSSVTQHMQRLEQQTGVSLFQKKGRHKQLTESGRQLLRHARQMLSLNDDALNSLRDSSLSGVLRIGSPHDIADTILPPLLSHIARSAPRLRLEIDVGRSPFLMDDLHRGKVDMVISTREDPTLEGFALRTSPVWWICSAQYIHVPGEPLPLILVDEPSIYRRYALHALEAANIPWRQAYLASNLIGIKAATRAGLGVTPRSMEMLGPDMRVLGESEGLPRLPDVTYHLWIRPNTLNPLARKAYELIRASQSL	not soluble
AHHHHHHGSFFLKTKIIEGRGSLEYLQKEAIGFERALILASSSMKRLGFLKEAEDYLREGGVEVISIAGLPPEPTKDVVDEFLPKVREFSPEILIAIGGGSVIDMAKALKVFYDVPGISFEEVAIKSRFSKPRPVPKLKTPLIAIPSTSGAGSEVSAASVIKVGDVKYTIVTPEIAPEVAILDPRLPEGMPPEVARNSGMDVLVHAIEAYVSKASSPFTDAMAVKAAKAVLEHLEESIRGDKNAREKIHYAATMAGIAFLNARLGLVHAMSHKAAWIGPHGLVNAILLPYVMEYNMARRREKYDALARELGFDNAEELLEEIKALNERLGIGPISSYVSEEEFLAKLDEMVERAYEDPLVNFNPVEPRKEDIRRIYERAFYGD	soluble
MNELLQDRVPPQNIEAEQAVLGSIFLDADVLIEAMEYVEPKDFYRRSHQLIFQTMMTLSDRNEAIDVVTIKDRLEQENLLEDVGGLSYLSDLALAVPTAANVIYYAKIVEQKSLLRNLIQTATEIVTKGFEQGEDVESILDDAERSILEVSEKRNRSGFLSISDVLNTTIANIDQLYQNDEEITGLPTGYQALDKMTAGLQAEELIILAARPAVGKTAFALNIAQNVGTKTDKAVAIFSLEMGAESLVNRMLCAEGSIEASHLRTGQLSEEEWQNLIIAMGSLSRANIYIDDTPGIKITEIRAKCRKLAQEKGNLGLILIDYLQLIEGTGKENRQQEVSDISRQLKKLAKELKVPVIALSQLSRGVEQRQDKRPVLSDIRESGSIEQDADIVAFLYRDDYYDRGEGEDGDHEPPEVDNVVEVIIEKNRSGARGTVELLFIKEYNKFSSLSPRTEF	not soluble
MAHHHHHHMQYNLIGSKINNHYVVDPYVSLLYLKRAYKFLRLLKDSGGEAIILGNKHREVHLEHYFGNVQRKETCSLNILTNVTKRYDLLICTDLPLFYPYMRNVLIPKMLVADGATFVKYKTFLHAFDYFIPLTGEKLDRHLHYVLARRYLSGGELR	not soluble
MGSDKIHHHHHHIPFDESIQTVDDVNLAVIGIYDAFKSSALYSGNLTILPDLQADLVYGVNGNTNTFGDIWRWKDILATNTSIEAVYAGLYNVINRCNFMLDRVDRVRNNTTDDKDLYKLDQCCGEAYFARAIAYSELVKMFCKAYESDEDAANQLGVILTKHYQGNEEMKRASLKASYEFILEDLDRAAQLLALDKDYDPSVDGALFNNATYFNEYTVYALRARVALYMRKWDEAIKYSSKVIDSEYYLLASCTRTISSGVSYYKYMWTDDMSTEAIWKVGFTINSYGGKLGQIFLNYNHVNYRPDYVPANWVFGLYDSNDLRPETIFQTLQTGFSHGLSWPLLIKYAGNNEFIAANILHVSMPKVLRLSEQYLIRAEAYVQQAQPDYGRAGKDITTLRTARYSTYGGSTALSASNAMEVIEAERVKELYMEGFRLHDLKRWHKGFERKPQDQSLANGSSLKVEADDPLFVWPIPQHELDAPGSQVQPNESNK	not soluble
MLAAGEGKRMGACKPLLPLGASTVLAHVAKTLLPAINGPLVVVTGHHGDAVTAEALRLSLETAENTTPQDGMFSSVRTGIAHIVGRVDGVLVLPADIPFVRTATCALVVEAFRRHRAAVTYPTLCGERGHPPLLDADTMRAVLASSGDGGLRGVLLALERQGGTTHDVAVADEGIVTDMDTPADHAQLVARHPLRHIPTPREREALLEMAGTPARVRAHCRMVARAALAMAAHLEATRRGFISPFARQSAPHGISTSGAHAEPRSVPASTTTHAVHAEGNTTLPHTATAHVACPPPDVTTGPMPTCQPGHMPDHMPGTARDAAQQAPAATASPQRLDRPLIHAAATLHDICKGTQRHEAAGGALLTRHGFPEVGSIIAAHRDIAPQAGPEIDEAALVMLADKYVRGVSLIPVEERFDERLREWAHRPDVACDIAARKARVLMVRDLFESETATELFPLLQRKVRRGTFLEHHHHHH	not soluble
MGHHHHHHSHMATSRYEPVAEIGVGAYGTVYKARDPHSGHFVALKSVRVPNGGGGGGGLPISTVREVALLRRLEAFEHPNVVRLMDVCATSRTDREIKVTLVFEHVDQDLRTYLDKAPPPGLPAETIKDLMRQFLRGLDFLHANCIVHRDLKPENILVTSGGTVKLADFGLARIYSYQMALTPVVVTLWYRAPEVLLQSTYATPVDMWSVGCIFAEMFRRKPLFCGNSEADQLGKIFDLIGLPPEDDWPRDVSLPRGAFPPRGPRPVQSVVPEMEESGAQLLLEMLTFNPHKRISAFRALQHSYLHKDEGNPE	not soluble
DERLELMESVDVGQTPSNVVYEENKLELLHYDAEAAGIEVPDEEKEDVPILIVYALINRPYILDLQEERSVVRRLLEAGHDVYLIDWNEPSRLDQHLTLDDYVNRYMDNCVDVVRDRSGQDAINILGYCMGGTMSVMYTALHKEKVNTLGLMAAGLCFDHTGGVLEEWGSEEYYSPQDVVDTFGNVPADMLDIGFALMDPVENYVTKYIRFAENMENEGFVENFGRMEQWLGDGIDVAGEAYVQFLEDVYQDNKLYKNELELDGKHVDLDNIDMPVLQLMGEYDHLIPPEASKPFNDVIASDDTRTIEFSTGHIGLSVSSSTHADLWPEVAEWYSER	not soluble
SAEGEEEGGDVLISVGHANVLGYTLREFLQLLQHITIGTVLQIKVYRDFINIPEEWQEIYDLIPEAKFPVTSTPKKIELAKDESFTSSDDNENVDLDKRLQYYRYPWSTVHHPARRPISISRDWHGYKKKNHTISVGKDINCDVMIHRDDKKEVRAPSPYWIMVKQDNESSSSSTSSTSDAFWLEDCAQVEEGKAQLVSKVG	soluble
MSTNPSQLVAADRIGFARLTKRAFDGENLYPLWQELMSKTDAGTATAGEQLDLALITQLFGHKQAGLSVQTETLKQQQLFRSPCASDNPRLRVLALAADIDMGGNTPIEFLLQDSGIELQTLYVIDGVPLPDPLPAHDVAIVIASDSDECMSALAAIEARVANWPAPLLNPPHLIRHLDRDKLYRLIGDIEGLEIPDTISVGRDTLVAAANGSATLPEVTGGVDFPIIVRPRGSHAGFGLARITDSVALLDYLRDRQESDYFIARYVDYASDDGQFRKYRVVVVDGKPYACHMAIANRWDIWYLNAGMAEDEVKRLEEAAFFHTFDFGFALRHKTALDGMIERIGLDYFTIDCAQTPRGDLLVFEIDNTAVVHDMDSPELYPYKPPQMHKIFDAFASMLERRVASRLTSVAAAALEHHHHHH	soluble
MGSDKIHHHHHHMLAVEMRRIYKVYPDGVVALKGVDFTVEEGEIHGLLGENGAGKSTLMRILYGEIKPTKGEVKVFGDKVEFNGPWDAIRKGIAMVYQHFTLIPTFTVLENLYLSMLTINPNITINEVRKLAKEKMKDIGFSVPLDDVVEDLPIGIQQRVEIIKALMANAKILILDEPTSVLTPLEVEELFKTLRKLKENGITVIFITHKLKEVKEITDRVTVLRRGEVVGVAKTKEVSERDLAKMMVQREIVMEIKKSPASPGNTVLRVEDLWVKDDRGLDAVKGVSFELKEGEILGIAGVQGNGQKELAEALAGIRRIEKGRIELLGRDVTELSADKRYKAGLAYVPDSRKVGLVLDMSVVENVILTNLPSVMRGRRISWEKANKIGKEIVERFDVLVSSLSTPIKHLSGGNQQKVMVGREIIREPKVVIVSEPTQGLDIGATEFIRKTLVSLRDQGKGILLISTDLDEILQLSDRIAVMYEGKIMAIGKVEEFTLEKLGLLMGGVNA	not soluble
MSSTPQFLRWYEQNKPVPYRSVLQEKFEPGQTLIVKGSTIDESQRFTINLHSKTADFSGNDVPLHVSVRFDEGKIVLNSFSNGEWGKEERKSNPIKKGDSFDIRIRAHDDRFQIIVDHKEFKDYEHRLPLSSISHLSIDGDLYLNHVHWGGKYYPVPYESGLANGLPVGKSLLVFGTVEKKAKRFHVNLLRKNGDISFHFNPRFDEKHVIRNSLAANEWGNEEREGKNPFEKGVGFDLVIQNEEYAFQVFVNGERYISFAHRADPHDIAGLQISGDIELSGIQIQ	not soluble
MMKAIPVEQAVGTVLCHDLTRIVPGEHKGRAFRKGHIVTEADIPLLLSIGKEHLYVLNLEAHQLHEDEAALRIATAAAGPGISLSEVSEGRINFMASPGLLCVDVEALNAINAIDEVALATMHSGQFIAARRAVAGTRVVPLVIDESKIRQVERICAASYPVVQVKPLRSHSIGVVTTGSEIFHGRIKDKFGPVMRDKFAALGSSVMGQRLVGDAPEATRDAILSFIGEGADMVVVTGGMSVDPDDQTPASIRATGAEVVTYGSPTFPGVMFMLAYLNDIPVLGLPGCVMYYRASIFDLVVPRLLAGERLARRDITSLGHGGFCAGCETCHHPVCPFGKLEHHHHHH	not soluble
MKCLVTGGNVKVLGKAVHSLSRIGDELYLEPLEDGLSLRTVNSSRSAYACFLFAPLFFQQYQAATPGQDLLRCKILMKSFLSVFRSLAMLEKTVEKCCISLNGRSSRLVVQLHCKFGVRKTHNLSFQDCESLQAVFDPASCPHMLRAPARVLGEAVLPFSPALAEVTLGIGRGRRVILRSYHEEEADSTAKAMVTEMCLGEEDFQQLQAQEGVAITFCLKEFRGLLSFAESANLNLSIHFDAPGRPAIFTIKDSLLDGHFVLATLSDTDSHSQDLGSPERHQPVPQLQAHSTPHPDDFANDDIDSYMIAMETTIGNEGSRVLPSISLSPGPQPPKSPGPHSEEEDEAEPSTVPGTPPPKKFRSLFFGSILAPVRSPQGPSPVLAEDSEGEGLEHHHHHH	not soluble
MTINASNSATKKDKPAKYTMIKQYICEHIESGEWPQNAKVPSENELTQQFDVSRMTARRALQELTEQGILVRSQGAGTFVATFKSQSSLLEIRNISDEISDRGHQHKAKQLLLNSTAVTDEIAILLNLKNNEDVFYSEILHYENDDAIQLEQRFVNVSLVPDYLLQNFTQITPHEYLSSVAPLTEATHEIEAILASDEICQQLDIQSTTPCLQVKRRTWSKQGVVSVAILTSPGDKYRLGSHLKF	not soluble

Source: the DeepSol protein solubility set
